US20170037110A1 (IMMATICS BIOTECHNOLOGIES, published 2017)

What follows are binders tested against T1, HLA-A*02:01 (human) (assay: UV peptide exchange ELISA).
T1 construct: monomers captured on streptavidin plates; also called MHC class I
Excerpt: Candidate peptides for T cell based therapies according to the present invention were further tested for their MHC binding capacity (affinity). The individual peptide-MHC complexes were produced by UV-ligand exchange, where a UV-sensitive peptide is cleaved upon UV-irradiation, and exchanged with the peptide of interest as analyzed. Only peptide candidates that can effectively bind and stabilize the peptide-receptive MHC molecules prevent dissociation of the MHC complexes. To determine the yield of the exchange reaction, an ELISA was performed based on the detection of the light chain (p2m) of stabilized MHC complexes.
96 well MAXISorp plates (NUNC) were coated over night with 2 μg/ml streptavidin in PBS at room temperature, washed 4× and blocked for 1 h at 37° C. in 2% BSA containing blocking buffer. […] Peptide-MHC monomers of the UV-exchange reaction were diluted 100 fold in blocking buffer. Samples were incubated for 1h at 37° C., washed four times, incubated with 2 μg/ml HRP conjugated anti-p2m for 1h at 37° C., washed again and detected with TMB solution that is stopped with […]. Absorption was measured at 450 nm.

Binder | peptide exchange yield
SLTIDGIYYV | ≥ 75%
SLTIDGIRYV | 50 to 75%
SLTEYLQNV | ≥ 75%
SLTETIEGV | 20 to 50%
